Test results from the RNAGym collection of RNA variant scans (doi:10.1073/pnas.2313332121).
Fewer inactive variants are shown than the library holds.

B1: TPR 5TU (parent)
chain: GGAUCUUCUCGAUCUAACAAAAAAGACAAAUCUGCCACAAAGCUUGAGAGCAUCUUCGGAUGCAGAGGCGGCAGCCUUCGGUGGCGCGAUAGCGCCAACGUUCUCAACUAUGACACGCAAAACGCGUGCUCCGUUGAAUGGAGUUUAUCAUG

Variants of: B1
Assay: polymerase ribozyme fitness, log enrichment relative to wild type (log ratio); higher = more active; in vitro selection for triplet polymerase activity
Summary of the method: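 Input and output libraries were sequenced on Illumina after a single in vitro selection round, run in triplicate on PCR-built, transcribed mutant libraries of each subunit of a heterodimeric triplet polymerase ribozyme. Selection annealed libraries to a biotinylated primer, the partner subunit and triplets, incubated them frozen at −7 °C, then gel-excised extended constructs for streptavidin-bead capture and RT-PCR. Genotypes with ≥10 input reads and ≥1 read per output were kept. Fitness is the logarithm, taken in base 2, of genotype enrichment divided by wild-type enrichment, using inverse-variance-weighted replicate averages.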

First: GGAUCUUCUCGAUCUAACAAAAAAGACAAAUCUGCCACAAAGCUUGAGAGGAUCUUCGGAUGCAGAGGCGGCAGCCUUCGGUGGAGCGAUAUCGACAACGUUCUCAACUAUGACACGCAAAACGCGUGCUCCGUUGAAUGGAGUUUAUCAUG [C51G C85A G92U C95A]
Second: GGAUCUUCUCGAUCUAACAAAAAAGACAAAUCUGCCACAAAGCUUGAGAGGAUCUUCGGAUGCAGAGGCGGCAGCCUUCGGUGGCGCGAUAGCGCCAACGUUCUCAACUAUGACCCGCAAAUCGCGUGCUCCGUUGAAUGGAGUUUAUCAUG [C51G A115C A122U]
The “polymerase ribozyme fitness (log ratio)” value of the first is lower: ≤ -4.2 for the first, -3.82 for the second.

GGAUCUUCUCGAUCUAACAAAAAAGACAAAUCUGCCACAAAGCUUGAGAGGAGCUUCGGAUGCAGAGGCGGCAGACUUCGGUGGCGCGAUAGCGCCAACGUUAUCAACUAUGACACGCAAAACGCGUGCUCCGUUGAAUGGAGUUUAUCAUG [C51G U53G C75A C103A] and GGAUCUUCUCGAUCUAACAAAAAAGACAAAUCUGCCACAAAGCUUGAGAGGAACUUCGGAUGCAGAGGCGGCAGCCUUCGGUCGCGCGAUAGCGCCAACGUUCUCAACUAUGACACGUAAAACGCGUACUCCGUUGAAUGGAGUUUAUCAUG [C51G U53A G83C C118U G128A] cannot be ordered by “polymerase ribozyme fitness (log ratio)” value: ≤ -4.2 for the first, ≤ -4.2 for the second.

First: GGAUCUUCUCGAUCUAACAAAAAAGACAAAUCUGCCACAAAGCUUGAGAGAAUCUUCGGAAGCAGAGGCGGCAGCCUUCGGUGGCGCGAUAGCGUCAACGUUCUCAACUAUGACACGCAAAACGCGUGCUCCGUUGAAUGGAGUUUAUCAUG [C51A U61A C95U]
Second: GGAUCUUCUCGAUCUAACAAAAAAGACAAAUCUGCCACAAAGCUUGAGAGAAUCUUCGGAUGCAGAGGCGGCAGCCUUCGGUGGCGCGAUAGCGCCAACGUUCUCAACUAUGACACGCAAAACGCGUGCUCCGUUAAAUGGAGUUUAUCAUG [C51A G136A]
The “polymerase ribozyme fitness (log ratio)” value of the first is lower: -2.06 for the first, -0.23 for the second.

Compared with GGAUCUUCUCGAUCUAACAAAAAAGACAAAUCUGCCACAAAGCUUGAGAGAAUCUACGGAUGCAGAGGCGGCAGCCUUCGGUGGCGCGAUAGCGACAUCGUUCUCAACUAUGACACGCAAAACGCGUGCUCCGUUGAAUGGAGUUUAUCAUG [C51A U56A C95A A98U], GGAUCUUCUCGAUCUAACAAAAAAGACAAAUCUGCCACAAAGCUUGAGAGUAUCUUCGGAUGCAGAGGCGGUAGCCUUCAGUGGAGCGAUAGCGCCAACGUUCUCAACGAUGACACGCAAAACGCGUGCUCCGUUGAAUGGAGUUUAUCAUG [C51U C72U G80A C85A U109G] is lower in “polymerase ribozyme fitness (log ratio)” value: -1.46 for the first, ≤ -4.2 for the second.

GGAUCUUCUCGAUCUAACAAAAAAGACAAAUCUGCCACAAAGCUUGAGAGGAUCUUCGGAUGCAGAGGCGGCAGCCUUCGGUGGGGCGAUAGCGCCAACGUUCUCAACUAUGACACGCAAAACGUGUGCUCCGUUGCAUGGAGUUUAUCAUG [C51G C85G C125U A137C] and GGAUCUUCUCGAUCUAACAAAAAAGACAAAUCUGCCACAAAGCUUGAGAGAAUCUUCGGAUGCAGAGGCGGCAGCCUUCGAUGGCGCGAUAGCGCCAACGUUCUCAACUAUGACACGCAAAACGCGUGCUCCGUUGAAUGGAGUUUGGCAUG [C51A G81A A147G U148G] cannot be ordered by “polymerase ribozyme fitness (log ratio)” value: ≤ -4.2 for the first, ≤ -4.2 for the second.

First: GGAUCUUCUCGAUCUAACAAAAAAGACAAAUCUGCCACAAAGCUUGAGAGUAUCUUCGGAUGCAGAGGGGGCAGCCUUCGGUGGCGCGAUAGCCCCAACGUUCUCAACUAUGACACGCAAAACGCGUGCUCCGUUGAAUGGAGUUCAUCAUG [C51U C69G G94C U146C]
Second: GGAUCUUCUCGAUCUAACAAAAAAGACAAAUCUGCCACAAAGCUUGAGAGAAUCUUCGGAUGCAGAGGCGGCAGCCUUCGGUGGCGCGAUAGCGCCAAGGUUCUCAACUAUGACACGCAAAACGCGUGCUCCGUUGAAUGCAGUUUAUCAUG [C51A C99G G141C]
The “polymerase ribozyme fitness (log ratio)” value of the first is higher: -1.9 for the first, ≤ -4.2 for the second.

First: GGAUCUUCUCGAUCUAACAAAAAAGACAAAUCUGCCACAAAGCUUGAGAGGAUCUUCUGAUGCAGAGGCGGCAGCCUUCGGUGGCGCGAUAGGGCCAACGUUCUCAACUAUGACACGCAAAAUGCGUGCUCCGUUGAAUGGAGUUUAUCAUG [C51G G58U C93G C123U]
Second: GGAUCUUCUCGAUCUAACAAAAAAGACAAAUCUGCCACAAAGCUUGAGAGAAUCUUCGGAUGCAGAGGCGGCAGCCUUCGGUGGCGCGAUAGCGCUAACGUUCUCAACUAUGACACGCAAAACGCGUGCUCCGUUGAAUGGAGUUUAUCAUG [C51A C96U]
The “polymerase ribozyme fitness (log ratio)” value of the first is lower: ≤ -4.2 for the first, -1.91 for the second.

First: GGAUCUUCUCGAUCUAACAAAAAAGACAAAUCUGCCACAAAGCUUGAGAGUGUCUUCGGAUGCAGAGGCGGCAGCAUUCGGUGGCGCGGUAGCGCCCACGUUCUUAACUAUGACACGCCAAACGCGUGCUCCGUUGAAUGUAGUUUAUCAUG [C51U A52G C76A A89G A97C C105U A119C G141U]
Second: GGAUCUUCUCGAUCUAACAAAAAAGACAAAUCUGCCACAAAGCUUGAGAGAAUCUUCGGAUGCAGAGGCGGCAGCCUUCGGUGGCGCGAUAGCCCCAACGUUCUCAACUAUGACACGCAAAACGCGUGCUCCGUUGAAUGGAGUUUAUCAUG [C51A G94C]
The “polymerase ribozyme fitness (log ratio)” value of the first is lower: ≤ -4.2 for the first, -1.47 for the second.

Going from GGAUCUUCUCGAUCUAACAAAAAAGACAAAUCUGCCACAAAGCUUGAGAGAAUCUUCGGAUGCAGAGGCGGCAGCCUUCGGUGGCGCGAUAGCGCCAACGUUCUCAACUAUGACACGCAAAACACGUGCUCCGUUGAAUGGAGUUUAUCAUG [C51A G124A] to GGAUCUUCUCGAUCUAACAAAAAAGACAAAUCUGCCACAAAGCUUGAGAGUAUCUUCGGAUGCAGAGGCGGCAGCCUUCGGUGGCGCGAUAGCGCCAACGUUCUCAACUAUGACUCGCAAAACGCGUGCUCCGUUGAAUGGAGUUUAUCAUG [C51U A115U], the “polymerase ribozyme fitness (log ratio)” value falls from -0.00389 to -2.12.

In the case of GGAUCUUCUCGAUCUAACAAAAAAGACAAAUCUGCCACAAAGCUUGAGAGAAUCGUCGGAUGCAGAGGCGGCAGCCUUCGGUGGCGCGAUAGCGUCAACGUUCUAAACUAUGACACUCAAAACGCGUGCUCCGUUGAAUGGAGUUUAUCAUG [C51A U55G C95U C105A G117U], the “polymerase ribozyme fitness (log ratio)” value is reported as ≤ -4.2.
